# Measurements from the nanobody polyreactivity screen of Harvey et al. (2022).
# Assay: yeast display, Sf9 membrane polyspecificity reagent, FACS + sequencing; frameworks hold sequencing errors
# Method in brief: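 Genes from sorted yeast were amplified by colony PCR, read by MiSeq 2 × 250 sequencing and filtered on CDR length. These cells carried a synthetic nanobody library in Saccharomyces cerevisiae BJ5465 and were sorted by FACS into low and high (top ~1%) gates on anti-HA and streptavidin fluorescence. Polyreactivity is labelled according to the gate of origin.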
row,Sequence,polyreactivity (PSR sort gate)
1,QVQLVESGGGLVQAGGSLRISCAASGRIFIWYDMGWYRQAPGKERELVAAITQSDDITYYADSVKGRFTISRDNAKNTVYLQMNSLKPEDTAVYYCAARVLETSTPYGYWGQGTQVTVSS,low polyreactivity
2,QVQLVESGGGLVQAGGSLRISCAASGRIFSEYAMGWYRQAPGKERELVATITWTGGSTTYADSVKGRFTISRDNAKNTVYLQINSLKPEDTAVYYCAADATRLRTRYKRDYWGQGTQVTVSS,high polyreactivity
3,QVQLVESGGGLVQAGGSLRISCAASGRIFWANVMGWYRQAPGKERELVAAITGGGRTYYADSVKGRFTISRDNAKNTVYLQMNSLKPEDTAVYYCNAELNWYYYIHLDYWGQGTQVTVSS,low polyreactivity
4,QVQLVESGGGLVQAGGSLRISCAASGRIFYVYAMGWYRQAPGKERELVAAITSGGSTYYADSVKGRFTISRDNAKNTVYLQMNSLKPEDTAVYYCAAYNRGRFRPYRFEYWGQGTQVTVSS,high polyreactivity
5,QVQLVESGGGLVQAGGSLRISCAASGRILLRNVMGWYRQAPGKERELVAVITRTGITYYAYSVKGRFTISRDNAKNTVYLQMNSLKPEDTAVYYCAAGLPKYEHDYWGQGTQVTVSS,low polyreactivity
6,QVQLVESGGGLVQAGGSLRISCAASGRTFDPYAMGWYRQAPGKERELVASISRGGSTYADSVKGRFTISRDNAKNTVYLQMNSLKPEDTAVYYCNTSLYTEGDAMDYWGQGTQVTVSS,low polyreactivity
7,QVQLVESGGGLVQAGGSLRISCAASGRTFPGNAMGWYRQAPGKERELVAAISWSGTRTYYADSVKGRFTISRDNAKNTVYLQMNSLKPEDTAVYYCNVVVKGAWDYYPYDYWGQGTQVTVSS,high polyreactivity
8,QVQLVESGGGLVQAGGSLRISCAASGRTFSGNAMGWYRQAPGKERELVAAISSGGSTNYADSVKGRFTISRDNAKNTVYLQMNSLKPEDTAVYFCARDAYLPRIADGDGRYELVDYWGHGTQVTVSS,low polyreactivity
9,QVQLVESGGGLVQAGGSLRISCAASGRTFTRYAMGWYRQAPGKERELVASITTGGRTYYADSVKGRFTISRDNAKNTVYLQMNSLKPEDTAVYYCNADRVYAWYRTYDYWGQGTQVTVSS,high polyreactivity
10,QVQLVESGGGLVQAGGSLRISCAASGRTFYGNAMGWYRQAPGKEREFFAAISASGGSTYYADSVKGRFTISRDNAKNTVYLQLNSLKPEDTSVYYCATDLGAFSVPYSPYDYWGLGTQVTVSS,low polyreactivity
11,QVQLVESGGGLVQAGGSLRISCAASGSIFDSKAMGWYRQAPGKERELVASFTSSGGSTYYADSVKGRFTISRDNAKNTVYLPRNSRKPEDTAVYYCAADSYKTIQDAYDYWGQGTQVTVSS,high polyreactivity
12,QVQLVESGGGLVQAGGSLRISCAASGSIFPEYAMGWYRQAPGKERELVAAITTSGGSTYYADSVKGRFTISRDNAKNTVYLQMNSLKPEDTAVYYCAVEYLVYLDYTYDYWGQGTQVTVSS,low polyreactivity
13,QVQLVESGGGLVQAGGSLRISCAASGSIFPRYAMGWYRQAPGKERELVAAISWRGGRTYYADSVKGRFTISRDNAKNTVYLQMNSLKPEDTAVYYCAARWRQRKSVRYGQQGYDYWGQGTQVTVSS,high polyreactivity
14,QVQLVESGGGLVQAGGSLRISCAASGSIFRPNAMGRYRQAPGKERELVAAINTSDDSTYYADSVKGRFTISRDNAKNTVYLQMNSLKQEDTAVYYCAAEYYAYPYGDYYDYWGQGTQVTVSS,low polyreactivity
15,QVQLVESGGGLVQAGGSLRISCAASGSIFTFYAMGRYRQAPGKERELVATITWLGGSTYADSVKGRFTISRDNAKNTVYLQMNSLKPEDTAVYYCAKYLGRQHEKDLGGMNYWGQGTQVTVSS,high polyreactivity
16,QVQLVESGGGLVQAGGSLRISCAASGSIFVHYAMGWYIPAPGKERELVAAITTSGGSTYYADSVKGRFTISRDNAKNTVYLQMNSLKPEDTAVYYCTARAVRYPFTGNYWGQGTQVTVSS,high polyreactivity
17,QVQLVESGGGLVQAGGSLRISCAASGSIFYRNVMGWYRQAPGKERELVAAISSSGGRTHYADSVKGRFTISRDNAKNTVYLQMNSLKPEDTAVYYCTALYAPQEYGRRFPNDYWGQGTQVTVSS,high polyreactivity
18,QVQLVESGGGLVQAGGSLRISCAASGSIFYWNTMGWYRQAPGKERELVATITRSGGSTRYADSVKGRCTISRDNAKITVYLQMNSLKPEDTAVYYCAAYRVYKRVVRGFDYWGQGTQVTVSS,low polyreactivity
19,QVQLVESGGGLVQAGGSLRISCAASGSISVYNAMGWYRQAPGKERELVAAISWSGGRTSYADSVKGRFTISRDNAKKTVYLQMNSLKPEDTEVYYCAADELTVLWDEDYWGQGTQVTVSS,low polyreactivity
20,QVQLVESGGGLVQAGGSLRISCAASGSTFAGNAMGWYRQAPGKERELVAAIDSSTGSTYYADSVKGRFTISRDNAKNTVYLQMNSLKPEDTAVYYCNKTSFLVKLDYWGQGTQVTVSS,low polyreactivity
21,QVQLVESGGGLVQAGGSLRISCAASGSTFDPYGMGWYRQAPGTERELVAAITSSGRTNYADSVKGRFTISRDNAKNTVYLQMNSLKPEDTAVYYCATRKERYFYRGYEYWGQGTQVTVSS,low polyreactivity
22,QVQLVESGGGLVQAGGSLRISCAASGSTFDVNAMGWYRQAPGKERELVAAISWNSGSTYYADSVKGRFTISRDNAKNTVYLQMNSLKPEDTAVYYCAATYGTGRRSKYGYWGQGTQVTVSS,high polyreactivity

row,Sequence,polyreactivity (PSR sort gate)
1,QVQLVESGGGLVQAGGSLRISCAASGSTFSYYAMGWYRQAPGKERELVAAISQTGGTTYYADSVKGRFTISRDNAKNTVYLQMNSLTPEDTAVYYSNAARPGGHYWGQGTQVTVSS,low polyreactivity
2,QVQLVESGGGLVQAGGSLRISCAASGSTFYRNAMGWYRQAPGKEREFVAAISFRGGGTYADSVKGRFTISRDNAKNTVYLQMNSLKPEDTAVYYCAADHLSYRRRYEYWGQGTQVTVSS,low polyreactivity
3,QVQLVESGGGLVQAGGSLRISCAASGSTFYYYAMGWYRQAPGKEREFVAAITFRCGTTYYADSVKGRFTISRDYAKNTVYLQMNSLKREDTAVYYCDAKPPFRNYVRYDYWGQGTQVTVSS,high polyreactivity
4,QVQLVESGGGLVQAGGSLRISCAASGSTLFNYAMGWYRQAPGKERELVAAIDWGDGTTYYADSVKGRFTISRDNAKNTVYLQMNSLQPEDTAVYYCAAEEFYSPYDYWGQGTQVTVSS,high polyreactivity
5,QVQLVESGGGLVQAGGSLRISCAASGSTLYRNAMGWYRQAPGKEMELVAAISSSGGTTFYADSVKGRFTISRDNAKNTVYLQMNSLKPEDTAVYYCNRNARKLRTVHSSVFGLDYWGQGTQVTVSS,low polyreactivity
6,QVQLVESGGGLVQAGGSLRISCAASGSTYRKYTMGWYRQAPGNERDLVATISWSGGSTNYADSVKGRFTISRDNAKTIVYLQMISLKPDDTAVYYCNAYVSPRYRGSRYYYWGQGTQVTVSS,high polyreactivity
7,QVQLVESGGGLVQAGGSLRISCAASGYIFAVYAMGWYRQAPGKEREFVAVITWRGGSTYYADSVKGRFTISRDNAKNTVYLQMNSLKPEDTAVYYCAARWHFLTSSRFDYWGQGTQVTVSS,high polyreactivity
8,QVQLVESGGGLVQAGGSLRISCAASGYIFFGNAMGWYRQAPGKERELVAAIRGRGTSTYYADSVKGRFTISRDNAKNTVYLQMNSLKPEDTAVYYFAADVVRSNFYGTFLYDYDYWGQCTQVTVSS,low polyreactivity
9,QVQLVESGGGLVQAGGSLRISCAASGYIFGTYAMGWYRQAPGKERELVAAISSTGRTYYADSVKGRFTISLDNAMNNVYLQMNRLKPEYTAVYYCAADVRTPSEGYDYWGQGTQVTVSS,high polyreactivity
10,QVQLVESGGGLVQAGGSLRISCAASGYNSYSNAMGWYRQAPGKERELVASILSGGSTNYADSVKGRFTISRDNAKNTVYLQMNSLKPEDTAVSYCATRVRTRTGYQYYYWGQGTQVTVSS,high polyreactivity
11,QVQLVESGGGLVQAGGSLRISCAASGYTFGKNAMGWYRQAPGKERELVAGISSRGGSTYYADSVKGRFTISRDNAKNTLYLQMNSLKPEDTAVYYCAAVAYTGGPRKLGFNYWGQGTQVTVSS,high polyreactivity
12,QVQLVESGGGLVQAGGSLRISCAASGYTVKSYAMGWYRQAPGKERELVAAISNGGNTYYADSVKGRFTISRDNAKNTVYLQMNSLKPEDTAVYYCAARYGYFYSRYDHWGQGTQVTVSS,low polyreactivity
13,QVQLVESGGGLVQAGGSLRISCAASVSIFARYAMGWYRQAPGQERELVAAISSRGGSTYYADSVKGRFTISRDNAKNTVYLQMNSLKPEDTAVYYCNKGYLVRPGVYWGQGTQVTVSS,high polyreactivity
14,QVQLVESGGGLVQAGGSLRISCDASGSIYSSNALGWYSQAPGKERELVAAISSSGSRTYYADSVKGRFTISRDKALITVYVQMNSLIPVDTAVDYWAAVIRYTRSYDYWGQGTQVTVSS,high polyreactivity
15,QVQLVESGGGLVQAGGSLRISCPASGTFYYYGMGWSRQAPGKERELVAAISWSGTSTFYADSVKGRFTISRDNAKNTVYIQMKSLKPEDTAVYYCHKPKFDSSGHDYWGQGTQETVSS,low polyreactivity
16,QVQLVESGGGLVQAGGSLRISSAASGNIFLYYAMGWYRQAPGKERELVAYIDSSGASTYYADSVKGRFTISRDNAKNTVYLQMNSLKPEDTAVYFCASDEGTVGGQQLRPLMDYWGQGTQVTVSS,low polyreactivity
17,QVQLVESGGGLVQAGGSLRISSAASGRIFVTNAMRWYRQAPGKERELLAAITRGGNTNYADSVKGRFTISRDNAKNTVYLQMNSLKPEDTAVYYCAADTSYDSVYGYFPGYYYWGQGTQVTVSS,low polyreactivity
18,QVQLVESGGGLVQAGGSLRITCAASGIIFGSYAMGWYRQAPGKETELVAAISTSGGSTYYADSVKGRFTISRDNAKNTVYLQMNSLKPEDTAVYYCNKAGVYRDSSRYNYWGQGTQVTVSS,high polyreactivity
19,QVQLVESGGGLVQAGGSLRITCAASGSTFGPYVMGWYRQAPGKEMELVAAISLSGASTYYADSVKGRFTISRDNAKNNVYLQMISLKPEETAVYYCAAQTPYGMYYWGQGTQVTVSS,low polyreactivity
20,QVQLVESGGGLVQAGGSLRLCCAASGRIFAGNAMGWYRQAPGKEREFVAGISKGGGRTYYADSVKGRCTISRDNAKKTVYLQMNSLKPEDTAVYYCAALPPRASSDAGGWYVAEDYWGQGTQVTVSS,high polyreactivity
21,QVQLVESGGGLVQAGGSLRLCCAASGYIFGWYTMGWYRPAPGKERELVAAISGGGRTYYADSVKGRFTISRDNAKNTVYLQKNSLKPEDTAVYYCNAYSTYIKYDYWGQGTQVTVSS,high polyreactivity
